Test results reported in US20240150474A1 (Regeneron, published 2024).

Experiments:
[1] = target: T1, full length human ACVR1 (amino acids 1-509, R206H, of accession #Q04771) on HEK293/BRE-luc/hACVR1-R206H-clone … (human, UniProt Q04771 21-509); experiment: flow cytometry, 70 nM antibody on HEK293/hACVR1-R206H cells, 4C
T1 construct: Expressed as amino acids 1-509; also called HEK293/hACVR1-R206H
T1 sequence: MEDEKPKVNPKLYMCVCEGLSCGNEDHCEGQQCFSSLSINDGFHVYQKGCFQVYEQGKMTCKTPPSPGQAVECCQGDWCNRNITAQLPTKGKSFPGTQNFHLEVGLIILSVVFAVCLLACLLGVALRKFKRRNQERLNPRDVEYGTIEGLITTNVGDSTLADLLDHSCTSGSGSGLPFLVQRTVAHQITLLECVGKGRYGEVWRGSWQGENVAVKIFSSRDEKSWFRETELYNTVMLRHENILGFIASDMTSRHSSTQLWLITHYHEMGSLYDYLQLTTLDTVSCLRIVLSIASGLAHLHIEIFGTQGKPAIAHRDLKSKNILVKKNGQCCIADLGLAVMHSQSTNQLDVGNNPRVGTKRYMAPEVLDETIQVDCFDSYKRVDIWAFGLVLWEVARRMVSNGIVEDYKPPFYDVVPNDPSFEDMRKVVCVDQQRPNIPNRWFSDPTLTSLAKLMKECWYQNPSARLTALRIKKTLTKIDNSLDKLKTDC
Experimental: To assess binding of the anti-ACVR1 antibodies of the invention to ACVR1 receptors expressed on the cell surface, 70 nM of the antibodies were incubated with 5×10⁵ cells/well at 4° C. for 30 minutes in PBS (without calcium and magnesium) containing 2% FBS (flow buffer). […] Cells were fixed using BD CytoFix™ (Becton Dickinson, # 554655) and analyzed on IQue® Flow Cytometer (Intellicyt®). Unstained and secondary antibody alone controls were also tested on cells. The results were analyzed using ForeCyt® (IntelliCyt®) software to determine the geometric means of fluorescence for viable cells and the binding ratio was calculated by normalizing the geometric mean value of the test condition by the geometric mean value of the corresponding unstained cells.

[2] = target: T2, mouse ACVR1 extracellular domain expressed with a C-terminal mouse IgG2a Fc tag (mouse, UniProt P37172 21-123); experiment: SPR Biacore T200, mAb captured by anti-human Fc, mACVR1-mFc injected, 37C
T2 construct: extracellular domain; Bought from R&D Systems; also called mACVR1-mFc; R&D System 6506-RA-100; not shown: mouse IgG2a Fc tag
T2 sequence (looked up): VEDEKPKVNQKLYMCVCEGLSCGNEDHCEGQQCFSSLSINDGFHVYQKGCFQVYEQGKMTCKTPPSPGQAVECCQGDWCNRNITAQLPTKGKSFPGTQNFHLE
Experimental: Equilibrium dissociation constants (KD) for ACVR1 binding to purified anti-ACVR1 monoclonal antibodies were determined using a real-time surface plasmon resonance (SPR) based Biacore T200 biosensor. All binding studies were performed in 10 mM HEPES, 150 mM NaCl, 3 mM EDTA, and 0.05% v/v surfactant Tween-20, pH 7.4 (HBS-EP) running buffer at […]. The Biacore CM5 sensor surface was first derivatized by amine coupling with a monoclonal mouse anti-human Fc antibody (REGN2567) to capture anti-ACVR1 monoclonal antibodies. Different concentrations of ACVR1 reagents, human ACVR1 extracellular domain expressed with a C-terminal myc-myc-hexahistidine tag (hACVR1-mmh; REGN3111, SEQ ID NO: 63), mouse ACVR1 extracellular domain expressed with a C-terminal myc-myc-hexahistidine tag (mACVR1-mmh; REGN3407, SEQ ID NO: 65), human ACVR1 extracellular domain expressed with a C-terminal mouse IgG2a Fc tag (hACVR1-mFc; REGN3112, SEQ ID NO: 64); and mouse ACVR1 extracellular domain expressed with a C-terminal mouse IgG2a Fc tag (mACVR1-mFc, R&D system), at concentrations ranging from 0.41 nM to 100 nM in a series of 3-fold dilutions prepared in HBS-EP running buffer were injected at a flow rate of 50 μL/min for 1.5 minutes. The dissociation of different ACVR1 reagents bound to anti-ACVR1 monoclonal antibodies was monitored for 20 minutes in HBS-EP running buffer. At the end of each cycle, the anti-ACVR1 monoclonal antibodies capture surface was regenerated using a 12 sec injection of 20 mM H3PO4. The association rate (ka) and dissociation rate (kd) were determined by fitting the real-time binding sensorgrams to a 1:1 binding model with mass transport limitation using Scrubber 2.0c curve-fitting software. Binding dissociation equilibrium constant (KD) and dissociative half-life (t½) were calculated from the kinetic rates as: […]
Binding kinetics parameters for different ACVR1 reagents to anti-ACVR1 monoclonal antibodies of the invention at 37° C. are shown in Table 5 through Table 8.

dimeric human BMPR1B = target: T3, dimeric human BMPR1B (human, UniProt O00238 14-126, limits assumed); experiment: SPR Biacore T200, mAb captured by anti-human Fab, dimeric receptor injected, 25C
T3 construct: Construct and dimerising part not described; also called Human Receptor BMPR1B
T3 sequence (looked up): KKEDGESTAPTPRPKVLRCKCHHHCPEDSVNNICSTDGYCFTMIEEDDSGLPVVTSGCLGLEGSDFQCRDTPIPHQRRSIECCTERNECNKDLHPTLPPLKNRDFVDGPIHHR
Experimental: (§1) ACVR1 mAbs were tested for cross-reactivity to a panel of bone morphogenic protein type 1 receptors including human and mouse ACVR1, BMPR1A, and BMPR1B, as well as ACVRL1 on a Biacore T200 as follows. In order to measure the specificity of ACVR1 mAbs, ACVR1 mAbs were captured with anti-human Fab immobilized on a CM5 chip. 100 nM or 10 nM of dimeric human or mouse ACVR1, ACVRL1, BMPR1A or BMPR1B were injected at 30 μL/min for 2 min (duplicate injections) and the experiment was performed at 25° C. Binding of different receptors to the captured mAb was determined using Scrubber 2.0c software.

dimeric mouse ACVRL1 = target: T4, dimeric mouse ACVRL1 (mouse, UniProt Q61288 23-119, limits assumed); experiment: as above
T4 construct: Construct and dimerising part not described; also called Mouse Receptor ACVRL1
T4 sequence (looked up): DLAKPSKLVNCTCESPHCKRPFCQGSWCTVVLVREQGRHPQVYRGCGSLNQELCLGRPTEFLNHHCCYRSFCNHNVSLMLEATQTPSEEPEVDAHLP
Experimental: as §1

dimeric mouse BMPR1B = target: T5, dimeric mouse BMPR1B (mouse, UniProt P36898 14-126, limits assumed); experiment: as above
T5 construct: Construct and dimerising part not described; also called Mouse Receptor BMPR1B
T5 sequence (looked up): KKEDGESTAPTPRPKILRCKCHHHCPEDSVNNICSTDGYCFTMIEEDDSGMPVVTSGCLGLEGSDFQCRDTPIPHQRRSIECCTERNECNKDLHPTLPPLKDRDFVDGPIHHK
Experimental: as §1

B1: REGN 5166 (antibody, human IgG4 S228P, kappa, V domains shown)
VH: QVQLVESGGGVVQPGRSLRLSCAASGFTFSAYWMHWVRQAPGKGLEWVAVISYDGSNKYYADSVKGRFTISRDHSKNTLYLQMNSLRAEDTAVYYCAKGDAYDSWRILLGGDYYGMDVWGQGTTVTVSS
VL: EIVLTQSPGTLSLSPGERATLSCRASQSVSSSYLAWYQQKPGQAPRPLIYGASSRATGIPDRFSGSGSGTDFTLTISRLEPEDFAVYYCQQGGDAPPYTFGGGTKVEIKR
notes: also called REGN 5166-L1
How did the “MFI-Normalized to Unstained Control” value [1] turn out when B1 was run?
The value was 2000 fold.

And the “100 nM Ag Bound (RU)” value [2]?
The value was 134 RU.

What about the Kd [2] of the same binder?
Its Kd is 0.0179 nM.

And the koff [2]?
The koff was 3.63e-05 s⁻¹.

What about the kon [2] of the same binder?
The kon was 2.03e+06 M⁻¹ s⁻¹.

What about the t½ [2] of the same binder?
Its t½ is 5.3 h.

Does B1 bind (dimeric human BMPR1B)?
Result: no binding (tested: 100 nM)

Does B1 bind (dimeric mouse ACVRL1)?
Result: no binding (tested: 100 nM)

Does B1 bind (dimeric mouse BMPR1B)?
Result: no binding (tested: 100 nM)

B2: REGN 5167 (antibody, human IgG4 S228P, kappa, V domains shown)
VH: QLQLQESGPGLVKPSETLSLTCTVSGGSITSSSYYWAWIRQPPGKGLEWIGKIYYSGSTHYNPSLKSRVTISVDTSKNQFSLKLSSVTAADTAVYYCARVGGHGYGDSAGLAFDIWGQGTMVTVSS
VL: EIVLTQSPGTLSLSPGERATLSCRASQSVSSAFLAWYQQKPGQAPRLLIYGASYRHTGIPDRFSGSGSGTDFTLTISRLEPEDFAVYYCQHYGVGPRTFGGGTKVEIKR
notes: also called REGN 5167-L1
Which “MFI-Normalized to Unstained Control” value [1] does the source give for B2 here?
Its value is 1870 fold.

What about the “100 nM Ag Bound (RU)” value [2] of the same binder?
Its value is 135 RU.

And the Kd [2]?
Its Kd is 0.0192 nM.

And the koff [2]?
Its koff is 3.63e-05 s⁻¹.

What about the kon [2] of the same binder?
Its kon is 1.89e+06 M⁻¹ s⁻¹.

And the t½ [2]?
The t½ was 5.3 h.

Does B2 bind (dimeric human BMPR1B)?
Result: no binding (tested: 100 nM)

Does B2 bind (dimeric mouse ACVRL1)?
Result: no binding (tested: 100 nM)

Does B2 bind (dimeric mouse BMPR1B)?
Result: no binding (tested: 100 nM)

B3: REGN 5168 (antibody, human IgG4 S228P, kappa, V domains shown)
VH: QVQLVQSGAEVKEPGASVKVSCKASGYTFAEYYMHWVRQAPGQGLEWMGAINPSGSHTSYAQKFQGRVTMTRDTSTSTVYMELSSLRSEDTAVYYCARSISGKRGGDYYGMDVWGQGTTVTVSS
VL: DIQMTQSPSTLSASVGDRVTITCRASQSISSWLAWYQQKPGKAPKLLIYKASSLESGVPSRFSGSGSGTEFTLTISSLQPDDFATYYCQQYSIFPFTFGGGTKVEIKR
notes: also called REGN 5168-L1
Which results are given for B3?
MFI-Normalized to Unstained Control [1]: 2250 fold; 100 nM Ag Bound (RU) [2]: 135 RU; Kd [2]: 0.0362 nM; koff [2]: 0.000111 s⁻¹; kon [2]: 3.06e+06 M⁻¹ s⁻¹; t½ [2]: 1.73 h; binding result (dimeric human BMPR1B): no binding (tested: 100 nM); binding result (dimeric mouse ACVRL1): no binding (tested: 100 nM); binding result (dimeric mouse BMPR1B): no binding (tested: 100 nM)
